According to patent US20130217572A1, “SPECIFIC DELIVERY OF AGROCHEMICALS” (VRIJE UNIVERSITEIT BRUSSEL, priority 2010, published 2013):

T1: potato lectin (Sigma) (potato, UniProt Q9S8M0 23-323)
T1 construct: Bought glycoprotein, coated on ELISA plates
T1 sequence (looked up): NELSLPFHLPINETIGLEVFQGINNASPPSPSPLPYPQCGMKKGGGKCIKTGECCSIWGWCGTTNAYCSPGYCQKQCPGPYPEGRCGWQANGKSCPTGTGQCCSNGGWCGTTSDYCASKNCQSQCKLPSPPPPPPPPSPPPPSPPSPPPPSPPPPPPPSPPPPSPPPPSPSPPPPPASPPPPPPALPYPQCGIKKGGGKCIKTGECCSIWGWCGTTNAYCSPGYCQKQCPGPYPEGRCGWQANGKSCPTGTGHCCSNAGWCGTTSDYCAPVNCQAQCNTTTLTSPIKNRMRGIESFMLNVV


Tests used:
potato lectin (Sigma) [1] = target: T1, potato lectin (Sigma); experiment: microcapsule retention; H: amine capsules, BS3 one-step, 0.1 ug VHH/cm2; potato lectin coat 100 ug/ml; 10% coverage
potato lectin (Sigma) [2] = target: T1, potato lectin (Sigma); experiment: microcapsule retention; L: amine capsules, BS3 two-step, 0.1 ug VHH/cm2; potato lectin coat 1 ug/ml; 100% coverage
potato lectin (Sigma) [3] = target: T1, potato lectin (Sigma); experiment: microcapsule retention; H: amine capsules, BS3 one-step, 0.1 ug VHH/cm2; potato lectin coat 1 ug/ml; 100% coverage
potato lectin (Sigma) [4] = target: T1, potato lectin (Sigma); experiment: microcapsule retention; H: amine capsules, BS3 one-step, 0.1 ug VHH/cm2; potato lectin coat 1 ug/ml; 10% coverage
potato lectin (Sigma) [5] = target: T1, potato lectin (Sigma); experiment: microcapsule retention; H: amine capsules, BS3 one-step, 0.1 ug VHH/cm2; potato lectin coat 100 ug/ml; 100% coverage
potato lectin (Sigma) [6] = target: T1, potato lectin (Sigma); experiment: microcapsule retention; L: amine capsules, BS3 two-step, 0.1 ug VHH/cm2; potato lectin coat 10 ug/ml; 10% coverage
potato lectin (Sigma) [7] = target: T1, potato lectin (Sigma); experiment: microcapsule retention; L: amine capsules, BS3 two-step, 0.1 ug VHH/cm2; potato lectin coat 10 ug/ml; 100% coverage
potato lectin (Sigma) [8] = target: T1, potato lectin (Sigma); experiment: microcapsule retention; G: amine capsules, BS3 one-step, 1 ug VHH/cm2; potato lectin coat 10 ug/ml; 10% coverage
potato lectin (Sigma) [9] = target: T1, potato lectin (Sigma); experiment: microcapsule retention; G: amine capsules, BS3 one-step, 1 ug VHH/cm2; potato lectin coat 10 ug/ml; 100% coverage
[10] = test system: intact living potato pot plants; experiment: VHH binding to intact living plants; parameters: species or system potato (variety Désirée); conditions: leaves attached to potato pot plant submerged in VHH solution in PBS, 1 hour
Method: Binding of VHH to intact living plants was investigated on potato pot plants (variety Désirée). Compound leaves of intact living plants were submersed in solutions of hexahistidine-tagged VHH in PBS, or PBS alone for control conditions, leaving the compound leaves attached to the plants. VHH were allowed to bind for 1 hour. Next, the compound leaves still attached to the plants were washed five times in PBS in Erlenmeyer flasks. Different leaves and petiole sections were sampled. Bound VHH were detected by incubation with monoclonal mouse anti-histidine antibodies directly conjugated with Alexa-488 fluorescent dye (Abd Serotec) in PBS for 1 hour. Unbound anti-histidine antibodies were removed by washing five times with PBS. Whole leaves, leaf discs, or petiole sections were analyzed for bound VHH with microscopy.

potato lectin (Sigma) [11] = target: T1, potato lectin (Sigma); experiment: VHH-coupled Uvitex microcapsules on potato lectin-coated wells; 25-fold less microcapsules applied
Method: An ELISA-like assay was performed using high bind half area microplates (Greiner Bio-One) coated with 5 μg/well potato lectin. Control wells included blank wells or wells coated with unrelated antigens. Plates were washed three times with PBS with 0.05%-TWEEN®-20 and blocked with 5% skimmed milk in PBS for 1 to 2 hours. VHH-coupled Uvitex-containing microcapsules were diluted to appropriate densities in 1% skimmed milk in PBS with 0.05%-TWEEN®-20. Five-fold serial dilution series were prepared and allowed to bind to the surface to compare binding of microcapsules coupled with monovalent or bivalent VHH. Microcapsules were added to the antigen-coated or control wells and allowed to bind for 1 hour. Unbound microcapsules were removed by washing five times with PBS with 0.05%-TWEEN®-20. The bottoms of ELISA plate wells were analyzed for bound microcapsules on a macrozoom microscope system (Nikon). Microcapsules were counted using Volocity image analysis software (Perkin Elmer). A DAPI filter was used to visualize Uvitex microcapsules.
The surface area of microcapsules with coupled bivalent VHH was 15-fold above the surface area of blank microcapsules applied at this microcapsule density while the surface area of microcapsules with monovalent VHH was only six-fold above the surface area of blank microcapsules applied at this microcapsule density. […]

gum arabic = experiment: VHH binding to gum arabic in ELISA; parameters: species or system acacia tree
Method: Titration of VHH antibody fragments was performed on ELISA plates (Maxisorp, Nunc) coated with 100 μl per well 100 μg/ml gum arabic in 50 mM carbonate pH9.6. Plates were coated at 4° C. overnight and coating was continued at room temperature for 1 hour on the next day. Plates were washed three times with PBS/0.05%-TWEEN®-20 and blocked with 5% skimmed milk in PBS for 1 hour. Four-fold serial dilutions of purified VHH antibody fragments were prepared in 1% MPBS/0.05%-TWEEN®-20 in polypropylene 96-well plates. Antibody concentrations ranged from 3 μg/ml to 12 ng/ml. Antibody dilutions were transferred to the gum arabic-coated plates and VHH antibody fragments were allowed to bind for 1 hour at room temperature. Bound VHH were detected with sequential incubations with monoclonal mouse anti-histidine antibodies (Abd Serotec) and rabbit anti-mouse IgG whole molecule antibodies conjugated with alkaline phosphatase (RaM/AP) (Sigma) in 1% MPBS/0.05%-TWEEN®-20. Unbound antibodies were removed by washing three times with PBS/0.05%-TWEEN®-20 after each antibody incubation. The plates were washed an additional two times with PBS and 100 μl pNPP disodium hexahydrate substrate (Sigma) was added to each well. The absorbance at 405 nm was measured and plotted as function of antibody concentration (see Table 1).

microcapsule counts (microcapsules) (potato lectin (Sigma) [1]) | microcapsule counts (microcapsules) (potato lectin (Sigma) [2]) | microcapsule counts (microcapsules) (potato lectin (Sigma) [3]) | microcapsule counts (microcapsules) (potato lectin (Sigma) [4]) | microcapsule counts (microcapsules) (potato lectin (Sigma) [5]) | microcapsule counts (microcapsules) (potato lectin (Sigma) [6]) | microcapsule counts (microcapsules) (potato lectin (Sigma) [7]) | microcapsule counts (microcapsules) (potato lectin (Sigma) [8]) | microcapsule counts (microcapsules) (potato lectin (Sigma) [9]) | Molecule | binding to an intact living plant [10] | fold of surface area above blank microcapsules (potato lectin (Sigma) [11]) | absorbance at 405 nm (gum arabic; Table 2, gum arabic coat, VHH 3 μg/ml) | absorbance at 405 nm (gum arabic; [VHH] 0.0117188 μg/ml (0.78125 nM), gum arabic 100 μg/ml) | absorbance at 405 nm (gum arabic; [VHH] 0.04688 μg/ml (3.125 nM), gum arabic 100 μg/ml) | absorbance at 405 nm (gum arabic; [VHH] 0.1875 μg/ml (12.5 nM), gum arabic 100 μg/ml) | absorbance at 405 nm (gum arabic; [VHH] 0.75 μg/ml (50 nM), gum arabic 100 μg/ml) | absorbance at 405 nm (gum arabic; [VHH] 3 μg/ml (200 nM), gum arabic 100 μg/ml) | absorbance at 405 nm (gum arabic; [VHH] 3 μg/ml (200 nM), no gum arabic coat (−))
225 | 860 | 173 | 36 | 622 | 186 | 787 | 13 | 104 | Control VHH | – | – | – | – | – | – | – | – | –
– | – | – | – | – | – | – | – | – | VHH 3E6 (VHH, also called Monovalent VHH 3E6) VHH: QVQLQESGGGLVQPGGTLSLSCAASGFNVRWYGMGWFRQAPGKEREGVACISALQETTAYADSVKGRFTLSRDNPKNTLSLQMNNLQPEDTGVYYCATTDCDDSSRMTYTSYLGQGTQVTVSS | binding leaf surface, stomata, glandular trichomes, and leaf hairs | 6 fold | 0.882 | 0.392 | 0.905 | 1.518 | 1.904 | 2.154 | 0.090
